Measurements reported in patent publication US20030148956A1 (PROCTER AND GAMBLE, published 2003).

T1: CRF2R
T1 sequence (Q13324 whole entry, species assumed, looked up): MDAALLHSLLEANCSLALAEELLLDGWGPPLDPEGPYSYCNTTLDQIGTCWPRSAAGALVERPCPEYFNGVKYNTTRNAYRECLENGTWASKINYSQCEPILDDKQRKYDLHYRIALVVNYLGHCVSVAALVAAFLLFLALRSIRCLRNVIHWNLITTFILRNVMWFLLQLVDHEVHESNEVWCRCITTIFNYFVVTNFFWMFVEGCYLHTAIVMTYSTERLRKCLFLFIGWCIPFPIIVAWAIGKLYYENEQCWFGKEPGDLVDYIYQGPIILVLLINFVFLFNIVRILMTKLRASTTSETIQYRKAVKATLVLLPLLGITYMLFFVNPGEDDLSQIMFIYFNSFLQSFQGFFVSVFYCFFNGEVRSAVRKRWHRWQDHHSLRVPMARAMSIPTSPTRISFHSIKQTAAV


How the values were obtained:
[1] = molecular target: CRF1R; experiment: cell-based or functional assay
[2] = molecular target: T1, CRF2R; experiment: cell-based or functional assay

| Binder | CRF1R EC50 [1] [nM] | CRF1R Emax [1] [%] | CRF2R EC50 [2] [nM] | CRF2R Emax [2] [%] |
| --- | --- | --- | --- | --- |
| ZGPPISIDLPLVLLRKMIEIEKQEKEKQQAANNRLLLDTI (C-terminal amide) [SEQ ID NO 193] | 266 | 95 | 10.1 | 97 |
| ZGPPISIDLPLILLRKMIEIEKQEKEKQQAANNRLLLDTI (C-terminal amide) [SEQ ID NO 194] | 106 | 94 | 5 | 96 |
| ZGPPISIDLPLFLLRKMIEIEKQEKEKQQAANNRLLLDTI (C-terminal amide) [SEQ ID NO 195] | 103 | 93 | 18.8 |  |
| ZGPPISIDLPQLLLRKMIEIEKQEKEKQQAANNRLLLDTI (C-terminal amide) [SEQ ID NO 196] | 447 | 96 | 27.7 | 97 |
| ZGPPISIDLPFQLLRKMIEIEKQEKEKQQATTNARLLDTV (C-terminal amide) [SEQ ID NO 20] | 906 | 60 | 7.81 | 99 |
| ZGPPISIDLPQILLRKMIEIEKQEKEKQQAANNRLLLDTI (C-terminal amide) [SEQ ID NO 199] | 706 | 93 | 8.5 | 92 |
| ZGPPISIDLPYTLLRKMIEIEKQEKEKQQAANNRLLLDTI (C-terminal amide) [SEQ ID NO 200] | 188 | 99 | 8.8 | 100 |
| ZGPPISIDLPYVLLRKMIEIEKQEKEKQQAANNRLLLDTI (C-terminal amide) [SEQ ID NO 201] | 99.6 | 80 | 5 | 100 |
| ZGPPISIDLPYQLLRKMIEIEKQEKEKQQAANNRLLLDTI (C-terminal amide) [SEQ ID NO 202] | 404 | 100 | 8.7 | 99 |
| ZGPPISIDLPYLLLRKMIEIEKQEKEKQQAANNRLLLDTI (C-terminal amide) [SEQ ID NO 203] | 76.2 | 86 | 5.2 | 94 |
| ZGPPISIDLPYILLRKMIEIEKQEKEKQQAANNRLLLDTI (C-terminal amide) [SEQ ID NO 204] | 32.1 | 74 | 3.6 | 93 |
| ZGPPISIDLPHHLLRKMIEIEKQEKEKQQAANNRLLLDTI (C-terminal amide) [SEQ ID NO 205] | 126 | 88 | 25 | 93 |
| ZGPPISIDLPAHLLRKMIEIEKQEKEKQQAANNRLLLDTI (C-terminal amide) [SEQ ID NO 206] | 696 | 97 | 30.5 | 97 |
| ZGPPISIDLPQHLLRKMIEIEKQEKEKQQAANNRLLLDTI (C-terminal amide) [SEQ ID NO 207] | 466 | 88 | 61.4 | 96 |
| ZGPPISIDLPYHLLRKMIEIEKQEKEKQQAANNRLLLDTI (C-terminal amide) [SEQ ID NO 208] | 64.9 | 81 | 5.6 | 88 |
| ZGPPISIDLPFQLLRKMIEIEKQEKEKQQATTNARLLATV (C-terminal amide) [SEQ ID NO 21] | 908 | 88 | 8.46 | 96 |
